Measurements from the DeepSol protein solubility set.

assay: soluble on expression in E. coli; label from the status in PepcDB or PDB records

**Q.** For “MTDTAEKYEAVVVGCGPGGAAAAATLARNGVETLVLERGVDAGSKNVSGGLIYAEESAPYTIDGLFPDFREEAAERPVTENLIHNIAGDRVKSFDIGDLHHHDTAWADAVLRRKMDSWLAQQVHERTRETGGGLLTEVHVTGLLRERGEIVGVTTEELDPIKADIIVAADGVNSELARDAGLMDWDEPEEWFQGVKAVVDMEPEVINDRFDVASDDGAAHLFSGDLFDGVRGGGFLYTNESSLSIGTVFHLDSIAEERAEPHELLDSLLTHPLMAQWLGDEYDEREYSAKLVPDSKKAAHPSPHEDRLVLVGDAAGQMQAQGPIIKGMNHAVTAGALAAEAFADARARGDPSQAGKLYEKKLHDEGVMDKLRPTGYRVFGQLGELGPVDNLSNAIAESAVGRFGVRAAAGLLERAYSSPRLVSMIPDTKLPYVTLPTVIAEELGEPVTDENTVSPPDLGDRIGDLTYDVGDPHIELVDKSFEASGTAVTACPVSAEDFGGGCYRDEMVQTNGSEEHLVSLDTQPCVECGTCAIVADTEWEHPAGGKGVEFNQGLEHHHHHH”, which “soluble on expression in E. coli” value is on record?
**A.** not soluble

**Q.** Which “soluble on expression in E. coli” value does the source give for “MNLKQLEVFLAVAESGSFSRGAEATFLTQSTVSQHIAALESEVGVRLLDRTSRGALLTEGGKILLEHARKVVAGSREISKVMRRFRGLEEAELRIGGSTIPADYMIPAMLASFLGRHPGVQVTLLQGDSRDILDRIEREDAEVGIIGSRFDEEGFTFTPLGRDEIRLIAAPDHPLAGTGAVPLAELANHGFVFRELGSGTAKSVAEALAGAGLPAEKLHVRACLGSNEAVKQAVAAGLGLSFVSELSVRKELARGELVELPVEGLTIARTFYLVARTGRELSPPAVAFIGELTGTRLA” here?
**A.** not soluble

**Q.** With “DVKLVESGGGLVKPGRSLKLSCAASGFTFSDYYMFWVRQTPEQRLEWVATISDGGAYTYYPDSVKGRFTISRDNAKNNLYLQMNSLKSEDTGMYYCARDPLEYYGMDYWGQGTSVAVSSAKTTAPSVYPLAPVCGDTTGSSVTLGCLVKGYFPEPVTVTWNSGSLSSGVHTFPAVLQSDLYTLSSSVNVTSSTWPSQSITCNVAHPASSTKVDKKIVPR” as the sequence, how does the “soluble on expression in E. coli” value read?
**A.** soluble

**Q.** For “MWKAVMNAWNGTESQSKNVSNIQSYSFEDMKRIVGKHDPNVVLVDVREPSEYSIVHIPASINVPYRSHPDAFALDPLEFEKQIGIPKPDSAKELIFYCASGKRGGEAQKVASSHGYSNTSLYPGSMNDWVSHGGDKLDL”, which “soluble on expression in E. coli” value is on record?
**A.** soluble

**Q.** With “MGSDKIHHHHHHAQQQELPVPKPHQLKWHEAEMGAVFHYDLHVFDGIRYGQGNNRINPIEDYNIFNPTELNTDQWVQAAKAAGCKFAVLTATHETGFGLWQSDVNPYCLKAVKWRDGKGDIVRDFVNSCRKYGLQPGIYIGIRWNSLLGIHNFKAEGEGAFARNRQAWYKRLCEKMVTELCTRYGDLYMIWFDGGADDPRADGPDVEPIVNKYQPNCLFYHNIDRADFRWGGSETGTVEYPCWSTFPVPCSHHKRIESSIDQLELLKHGDKNGRYWVPAMADTPLRGANGRHEWFWEPDDENNIYPLNTLMDKYEKSVGRNATLILGLTPDPTGLIPAGDAQRLKEMGDEINRRFSSPIARISGQKKSLTLKLGKEQSVNYCIIQENIKNGERIRQYQIEAKVNGKWQTVCKGESVGHKRIEKFEPVEATALRLTVSESIALPDIINFSAYSVK” as the sequence, how does the “soluble on expression in E. coli” value read?
**A.** not soluble

**Q.** For “MGSDKIHHHHHHMKITFPNLGNTLYAAKALFDNLEIEYVLPPNSSKKCLEIGSLYSPEDICLPFKIMIGAYIDSIERGADTILITGSCGPCRFGEYCELQINLLKKLGHDVDFIVLDRPSSIGKTEFLNRLSKISGSSSISSYKKLKAVYSAYKIINLIDYIEKTARYKAGFELKKGECKKILQTCKKSALTCNNAESMIDLLTKYKHMINHVPIDSTKTPLKVSIIGEIYTILEPFSNLYIENKLMDLGISTQKNITPSWWFKDAMLSNLNLNSINLRMNSKKYLPYYIGGHGRECVGEAVMASNSGFDGAIQLFPMGCMPEIVSKSILPTISRDKDFPILSLIIDEMTGDAGYMTRIEAFIDLLERRKNRCII”, which “soluble on expression in E. coli” value is on record?
**A.** not soluble

**Q.** Which “soluble on expression in E. coli” value does the source give for “MQEESYYNLTVGDTHDRLHNFQITVDTDYRNFVQLVNTMRSPNIAQQDRAFLQLQQLGLQHPDYIRKARVPETMRQFAEGAAGKRRIRSCHGTYLHWYDEGLKVDMKSGEAGTCENWIIEDWNEKVVFRAVDPRGKYLRACLGSNQLTLVYIPEPTELWSPFENGNGTWSFLSSNGTWLSAHEDGQVCTVKDRQACEEFLLESW” here?
**A.** not soluble

**Q.** For “MGVVLARGAFRERSMLTLPDFPLPDARGRFGPYGGRYVPETLIPALEELEAAYREAKKDPAFLEELDHYLRQFAGRPTPLYHAKRLSEYWGGAQVFLKREDLLHTGAHKINNTLGQALLARRMGKRRVIAETGAGQHGVSVATVAALFGLECVVYMGEEDVRRQALNVFRMKLLGAEVRPVAAGSRTLKDATNEAIRDWITNVRTTFYILGSVVGPHPYPMMVRDFQSVIGEEVKRQSLELFGRLPDALIAAVGGGSNAIGLFAPFAYLPEGRPKLIGVEAAGEGLSTGRHAASIGAGKRGVLHGSYMYLLYDHDGQITPAHSVSAGLDYPGVGPEHSYYADAGVAEYASVTDEEALEGFKLLARLEGIIPALESAHAIAYAAKVVPEMDKDQVVVINLSGRGDKDVTEVMRLLGGEL”, which “soluble on expression in E. coli” value is on record?
**A.** soluble

**Q.** For “MSDNLSARWHRILDMTNRETSDDVVIARSSFDDFSQSTPWRKFEISCGNRSFFVNPGWLAELSPYFADELYVRKPNVQRYVIDQATPDEVLEFLRCITFCPMRKPLTVKNVSLVLTFANRFEMRPVQARCENFIAQNATSLSRDKTKLFQVTCAMSQCDPNSSTMSVLVDKLAGIKDDELSRLHFAEMPGDVVAEVYAQKIQRTKDKKAQRQAGASDETAAGCCFMQWASSLFNRRRQRNQADQSILPPSGDQQHHRSELHA”, which “soluble on expression in E. coli” value is on record?
**A.** not soluble

**Q.** Which “soluble on expression in E. coli” value does the source give for “MSDNAQLTGLCDRFRGFYPVVIDVETAGFNAKTDALLEIAAITLKMDEQGWLMPDTTLHFHVEPFVGANLQPEALAFNGIDPNDPDRGAVSEYEALHEIFKVVRKGIKASGCNRAIMVAHNANFDHSFMMAAAERASLKRNPFHPFATFDTAALAGLALGQTVLSKACQTAGMDFDSTQAHSALYDTERTAVLFCEIVNRWKRLGGWPLPAAEEV” here?
**A.** not soluble

**Q.** For “MGKIKIGINGFGRIGRLVARVALQSEDVELVAVNDPFITTDYMTYMFKYDTVHGQWKHSDIKIKDSKTLLLGEKPVTVFGIRNPDEIPWAEAGAEYVVESTGVFTDKEKAAAHLKGGAKKVVISAPSKDAPMFVCGVNEDKYTSDIDIVSNASCTTNCLAPLAKVIHDNFGIIEGLMTTVHAITATQKTVDGPSSKDWRGGRAASFNIIPSSTGAAKAVGKVLPDLNGKLTGMSFRVPTVDVSVVDLTVRIEKAASYDAIKSAIKSASEGKLKGIIGYVEEDLVSTDFVGDSRSSIFDAKAGIALNDNFVKLVAWYDNEWGYSNRVIDLIRHMAKTQ”, which “soluble on expression in E. coli” value is on record?
**A.** soluble

**Q.** For “MSLTRSTRNSIEFKVWGRHALFTDPLTKVGGEKCSYHVPTYEALKGIAKSIYWKPTLIWVIDEVRVMKRVRTQTKGTKPLEFGGGNSLAIYTFLADVEYQVRAHFEWNEHRPELQADRIDGKHYAIARRMLERGGRQDIFLGTRDCQGYIEPCEFGGGAGAHDEGSELAFGLMFHGFDYPDETGDQKLHARFWRPVMRNGFIRFDRPEDCPVRKFVRSMSVKPFGFGQNLQSADEAAAELEGLAEGHHHHHH”, which “soluble on expression in E. coli” value is on record?
**A.** soluble

**Q.** For “MRDVLFLPFADGMELAVAADGSAAVGDKPGDVVSAPADVVAYFAARVALMELVSVGAEAKAVVLQNFIADDRWEALCRGVRRTCRELGIDLPITGSTESNFPTVQSALGVTAIGTVANERKRIGITPEEAKFAVIGRPLVGSAVLSHPEWVAPLPLFAALLRTPYIYELIPIGSKGIYYEWTQLLAANGRQGRACACPLPLFSSGGPATSVLVSYDPDGEREIKKQAGSLFFPLHVEW”, which “soluble on expression in E. coli” value is on record?
**A.** not soluble

**Q.** With “MPGGVSSPVRAFKSVGGQPIVFDHVKGAHIWDVDGNQYIDYVGSWGPAIVGHAHPEVIDALHAALEKGTSFGAPCLLENILAEMVIAAVPSVEMVRFVNSGTEACMAVLRLMRAYTQREKVIKFEGCYHGHADMFLVKAGSGVATLGLPDSPGVPKATTAATLTAPYNDLEAVSRLFEQYPNDIAGVILEPVVGNAGFIPPDAGFLEGLRELTKQYGALLVFDEVMTGFRIAYGGAQEKFGVTPDLTTLGKVIGGGLPVGAYGGRAEIMKMVAPAGPVYQAGTLSGNPLAMTAGIKTLEILSRPGSYEHLDRITGKLVQGLLDAAREFGHEVCGGHISGMFGLFFTAGPVTNYEQAKQSDLKKFAAFHRGMLEQGIYLAPSQFEAGFTSLAHTEADIERTIAAARTVLSQL” as the sequence, how does the “soluble on expression in E. coli” value read?
**A.** soluble

**Q.** For “MRGSHHHHHHGSLMPGGKEFYNFYPEYVVGLQWMGDNYVFIEGDDLVFNKANGKSAQTTRFSAADLNALMPEGCKFQTTDAFPSFRTLDAGRGLVVLFTQGGLVGFDMLARKVTYLFDTNEETASLDFSPVGDRVAYVRNHNLYIARGGKLGEGMSRAIAVTIDGTETLVYGQAVHQREFGIEKGTFWSPKGSCLAFYRMDQSMVKPTPIVDYHPLEAESKPLYYPMAGTPSHHVTVGIYHLATGKTVYLQTGEPKEKFLTNLSWSPDENILYVAEVNRAQNECKVNAYDAETGRFVRTLFVETDKHYVEPLHPLTFLPGSNNQFIWQSRRDGWNHLYLYDTTGRLIRQVTKGEWEVTNFAGFDPKGTRLYFESTEASPLERHFYCIDIKGGKTKDLTPESGMHRTQLSPDGSAIIDIFQSPTVPRKVTVTNIGKGSHTLLEAKNPDTGYAMPEIRTGTIMAADGQTPLYYKLTMPLHFDPAKKYPVIVYVYGGPHAQLVTKTWRSSVGGWDIYMAQKGYAVFTVDSRGSANRGAAFEQVIHRRLGQTEMADQMCGVDFLKSQSWVDADRIGVHGWAYGGFMTTNLMLTHGDVFKVGVAGGPVIDWNRYEIMYGERYFDAPQENPEGYDAANLLKRAGDLKGRLMLIHGAIDPVVVWQHSLLFLDACVKARTYPDYYVYPSHEHNVMGPDRVHLYETITRYFTDHL”, which “soluble on expression in E. coli” value is on record?
**A.** soluble

**Q.** With “MIPKIIHYVWVGHNPKSKLIQECIATWKEKLPDYQFIEWNEDNFDMHENKYIEQAYKAKKWAFVSDYIRAKAIYEQGGIYLDTDVRVIASLTPLLDNKAFIGFENNNYLSAAIFGAEKGHPFMQDILDYYKDRNFEYDVNNQMAGVNSVSVTDMLIDRYGLKIGNKEQELKEGIHVYPDGVLCNPSVNSLSIHLFTGTWMNGKHSFKHKLVTFLKRHINTPKEAGLYAKWIRLEHHHHHH” as the sequence, how does the “soluble on expression in E. coli” value read?
**A.** soluble

**Q.** Which “soluble on expression in E. coli” value does the source give for “SEPTAPSLTEEDLTEVKKDALENLRVYLCEKIIAERHFDHLRAKKILSREDTEEISCRTSSRKRAGKLLDYLQENPKGLDTLVESIRREKTQNFLIQKITDEVLKLRNIKLEHLKGLKCSSCEPFPDGATNNLSRSNSDESNFSEKLRASTVMYHPEGESSTTPFFSTNSSLNLPVLEVGRTENTIFSSTTLPRPGDPGAPPLPPDLQLEEEGTCANSSEMFLPLRSRTVSRQ” here?
**A.** soluble

**Q.** With “MGSDKIHHHHHHMADDQEKLLIDEEETVQIKDLNKVTTVNDTDLLLLDDGAASSNAITFKNFLDASKDKIFKGEGLDYFKQIIKSTIAEELAADKDFVEKIYAKITDKLINNDSTNISNLFSKIKSRLTDSISSATLSRSDHLLIMPSSDTIQKTPVPKHILGVPSNLAYGSITRSTTLYPSDYENNAIFINMEDNDDVTLIFSKSYDNSPVYLDIEIQVKINDNRMQKKSLKLQYSDETTYNRVYEIAGPRGLFTRIPIYKGWYVQKRASLYGDPVPDLLKL” as the sequence, how does the “soluble on expression in E. coli” value read?
**A.** not soluble

**Q.** For “MTGSVVVAGLGPGAQELITPEVSAALALATDIVGYAPYVARVAERDGLQRHASDNREELDRAGFALRLATEGRHVVIVSSGDPGVFAMAAALFEAIEAGDPSWRELDIRVLPGIS”, which “soluble on expression in E. coli” value is on record?
**A.** not soluble

**Q.** Which “soluble on expression in E. coli” value does the source give for “AIAAAVKDSCGKGEMATGNGRRLHLGIPEAVFVEDVDSFMKQPGNETADTVLKKLDEQYQKYKFMELNLAQKKRRLKGQIPEIKQTLEILKYMQKKKESTNSMETRFLLADNLYCKASVPPTDKVCLWLGANVMLEYDIDEAQALLEKNLSTATKNLDSLEEDLDFLRDQFTTTEVNMARVYNWDVKRRNKDDSTKNKA” here?
**A.** soluble
